The record followed here is US20150329642A1 (Genmab, published 2015).

The target of assay [1] is T1, cMetECDHis (human, UniProt P08581 25-932, limits assumed, biotinylated in the cross-block ELISA of Example 17).
T1 construct: Expressed in HEK-293F cells; also called soluble cMetECDHis; biotinylated cMetECDHis
Briefly: cross-block ELISA; competitor 005. The protocol:
(§1) First, the optimal coating concentrations of the tested anti-c-Met antibodies and the optimal cMetECDHis concentration were determined. Therefore, ELISA wells were coated overnight at 4° C. with anti-c-Met HuMabs serially diluted in PBS (8 μg/mL in 2-fold dilutions). Next, the ELISA wells were washed with PBST (PBS supplemented with 0.05% Tween-20 [Sigma-Aldrich, Zwijndrecht, The Netherlands]) and blocked for one hour at room temperature (RT) with PBSTC (PBST supplemented 2% [v/v] chicken serum [Gibco, Paisley, Scotland]). Subsequently, the ELISA wells were washed with PBST and incubated for one hour at RT with biotinylated cMetECDHis serially diluted in PBSTC (1 μg/mL in 2-fold dilutions). Unbound biotinylated cMetECDHis was washed away with PBST, and bound biotinylated cMetECDHis was incubated for one hour at RT with 0.1 μg/mL Streptavidin-poly-HRP (Sanquin, Amsterdam, The Netherlands) diluted in PBST.
(§2) ELISA wells were coated with anti-c-Met antibody at a sub-optimal dose as described above. After blocking of the ELISA wells, they were incubated with the predetermined concentration of biotinylated cMetECDHis in the presence of an excess of anti-c-Met antibody. The reaction was developed as described above. Residual binding was expressed as a percentage relative to the binding observed in the absence of competitor antibody.

For assay [2], the target named is T1, cMetECDHis. Kind of assay: cross-block ELISA; competitor 006. The protocol:
as §1, §2

Assay [3] deals with T1, cMetECDHis. Kind of assay: cross-block ELISA; competitor 008. The protocol: as §1, §2
Assay [4] addresses T1, cMetECDHis. Kind of assay: cross-block ELISA; competitor 022. The protocol: as §1, §2
Assay [5] addresses T1, cMetECDHis. Briefly: cross-block ELISA; competitor 024. The protocol:
as §1, §2

Assay [6] has as its target T1, cMetECDHis. Kind of assay: cross-block ELISA; competitor 035. The protocol: as §1, §2
For assay [7], the target named is T1, cMetECDHis. Briefly: cross-block ELISA; competitor 045. The procedure: as §1, §2
In assay [8] the target is T1, cMetECDHis. Briefly: cross-block ELISA; competitor 058. The procedure:
as §1, §2

Assay [9] deals with T1, cMetECDHis. Kind of assay: cross-block ELISA; competitor 062. The procedure:
as §1, §2

In assay [10] the target is T1, cMetECDHis. Kind of assay: cross-block ELISA; competitor 064. The procedure: as §1, §2
For assay [11], the target named is T1, cMetECDHis. Kind of assay: cross-block ELISA; competitor 068. The protocol: as §1, §2
In assay [12] the target is T1, cMetECDHis. Kind of assay: cross-block ELISA; competitor 069. The procedure: as §1, §2
Assay [13] has as its target T1, cMetECDHis. Kind of assay: cross-block ELISA; competitor 098. The procedure:
as §1, §2

For assay [14], the target named is T1, cMetECDHis. Briefly: cross-block ELISA; competitor 101. The procedure: as §1, §2
Assay [15] concerns the target T1, cMetECDHis. Kind of assay: cross-block ELISA; competitor 5D5. The procedure:
as §1, §2

Assay [16] concerns the target T1, cMetECDHis. Kind of assay: cross-block ELISA; competitor G11-HZ. The protocol:
as §1, §2

The target in assay [17] is T1, cMetECDHis. Briefly: BLI (Octet); antibody captured, cMetECDHis in solution. Summed up: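 Bio-layer interferometry: anti-c-Met IgG immobilized via anti-human Fc sensors, exposed roughly 10 min to 10 μg/mL HEK293-made cMetECDHis, then moved to kinetics buffer for off-rate. Affinity derived with a 1:1 Langmuir model.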

B1: anti-c-Met HuMab 098 (IgG1) (antibody, V domains shown)
VH: QVQLVQSGAEVKKPGASVKVSCKASGYTFTNFGISWVRQAPGQGLEWMGWISAFNGHTDYSQKVQGRVTMTTDTSTSTAYMELRSLRSDDTAVFYCARSHYYGSGSPFDYWGQGTLVTVSS
VL: DIQMTQSPSSLSASVGDRVTITCRASQGISNWLAWYQQKPEKAPKSLIYAASSLQSGVPSRFSGSGSGTDFTLTISSLQPEDFATYYCHQYKSYPWTFGQGTKVEIK
notes: also called TH1016-098; PC1016-098
For the molecule B1, the “residual binding, % of no competitor” value in [1] was 99.6%; in assay [2], 97.9%; in [3] it was 99.8%; in assay [4], 95.8%; in assay [5], 12.9%; in assay [6], 89.4%. For the same molecule, the “residual binding, % of no competitor” value in [7] came to 96.7%; in assay [8], 98.6%; in assay [9] it was 8.8%; in assay [10] it was 9.3%; in assay [11] it was 18%; in assay [12], 3.4%. The “residual binding, % of no competitor” value in assay [13] is 2.6%; in assay [14], 4%; in assay [15], 94.9%; in assay [16], 99.6%. The equilibrium dissociation constant (Kd) in assay [17] came out at 1.82 nM. Also, the dissociation rate constant (koff) in assay [17] came to 0.000297 s⁻¹. Further, in assay [17], the kon worked out at 164000 M⁻¹ s⁻¹.

B2: IgG1-1016-058 (antibody, V domains shown)
VH: EVQLVESGGGLVKPGGSLKLSCAASGFTFSDYYMYWVRQTPEKRLEWVATISDDGSYTYYPDSVKGRFTISRDNAKNNLYLQMSSLKSEDTAMYYCAREGLYYYGSGSYYNQDYWGQGTLVTVSS
VL: AIQLTQSPSSLSASVGDRVTITCRASQGLSSALAWYRQKPGKAPKLLIYDASSLESGVPSRFSGSGSGTDFTLTISSLQPEDFATYYCQQFTSYPQITFGQGTRLEIK
notes: also called IgG1-058; TH1016-058
B2: the “residual binding, % of no competitor” value in assay [1] was determined as 31.4%; in assay [2], 43.6%; in assay [3], 90.2%; in [4] it was 6.8%; in assay [5], 109%; in assay [6], 90.1%. In addition, the “residual binding, % of no competitor” value in [7] is 112%; in [8], 4%; in assay [9], 109%; in [10], 109%; in assay [11], 119%; in [12], 113%. In addition, the “residual binding, % of no competitor” value turned out to be 112% in assay [13], 104% in [14], 2.8% in assay [15] and 81.5% in [16]. Also, in assay [17], the dissociation constant Kd was determined as 2.7 nM. The molecule also gave a koff in assay [17] of 0.00125 s⁻¹. In addition, the kon in assay [17] came out at 464000 M⁻¹ s⁻¹.

B3: anti-c-Met HuMab 101 (IgG1) (antibody, V domains shown)
VH: QVQLVQSGGEVKKPGASVKVSCKASGYTFTRHGITWVRQAPGQGLEWMGWISADNGNTNYAQKFQDRVTMTTDTSTSTAYMELRSLRSDDTAVYFCARVFRYFDWLLPYFDYWGQGTLVTVST
VL: not shown
On to B3, for which the “residual binding, % of no competitor” value in assay [1] was found to be 91.5%; in assay [2], 89.7%; in assay [3], 94%; in assay [4], 90.7%; in assay [5], 40.5%; in assay [6], 96.7%. The “residual binding, % of no competitor” value in assay [7] was 94.7%; in assay [8], 93.1%; in [9] it was 36.9%; in [10], 37.4%; in assay [11], 45.9%; in assay [12], 9.5%. Besides, the “residual binding, % of no competitor” value is 9.7% in [13], 3.7% in assay [14], 97.2% in [15] and 98.3% in assay [16]. In assay [17], this molecule came in with a Kd of 1.27 nM. In assay [17], the koff turned out to be 0.000214 s⁻¹. In addition, in assay [17], the kon worked out at 169000 M⁻¹ s⁻¹.

B4: anti-c-Met HuMab 181 (IgG1) (antibody, V domains shown)
VH: QVQLVQSGAEVKKPGASVKVSCKASGYTFTSYGISWVRQAPGQGLEWMGWISTYNGYTNYAQKLQGRVTMTTDTSTSTAYMELRSLRSDDTAVYYCARDLRGTAYFDYWGQGTLVTVSS
VL: DIQMTQSPSSVSASVGDRVTITCRASQGISNWLAWYQHKPGKAPKLLIYAASSLLSGVPSRFSGSGSGTDFTLTISSLQPEDFATYYCQQANSFPITFGQGTRLEIK
notes: also called TH1016-181; PC1016-181
Regarding B4, the “residual binding, % of no competitor” value is 95.9% in assay [1]; 93.7% in assay [2]; 98.7% in [3]; 92.5% in [4]; 4.3% in [5]; 96% in assay [6]. Besides, the “residual binding, % of no competitor” value came out at 96.8% in assay [7]; 98.9% in assay [8]; 2% in [9]; 2.1% in assay [10]; 6.5% in assay [11]; 2.2% in [12]. Besides, the “residual binding, % of no competitor” value was 5.1% in [13], 2.4% in assay [14], 94.2% in assay [15] and 98.7% in [16]. The affinity in assay [17], expressed as Kd, was 2.23 nM. This molecule returned a koff in [17] of 0.000531 s⁻¹. This molecule registered an on-rate constant (kon) in assay [17] of 237000 M⁻¹ s⁻¹.
